Experimental data taken from PMC10204870, “Analysis of aptamer-target binding and molecular mechanisms by thermofluorimetric analysis and molecular dynamics simulation”.

Biological target: T1, alpha-fetoprotein (AFP) (Homo sapiens, UniProt P02771 19-609)
T1 sequence: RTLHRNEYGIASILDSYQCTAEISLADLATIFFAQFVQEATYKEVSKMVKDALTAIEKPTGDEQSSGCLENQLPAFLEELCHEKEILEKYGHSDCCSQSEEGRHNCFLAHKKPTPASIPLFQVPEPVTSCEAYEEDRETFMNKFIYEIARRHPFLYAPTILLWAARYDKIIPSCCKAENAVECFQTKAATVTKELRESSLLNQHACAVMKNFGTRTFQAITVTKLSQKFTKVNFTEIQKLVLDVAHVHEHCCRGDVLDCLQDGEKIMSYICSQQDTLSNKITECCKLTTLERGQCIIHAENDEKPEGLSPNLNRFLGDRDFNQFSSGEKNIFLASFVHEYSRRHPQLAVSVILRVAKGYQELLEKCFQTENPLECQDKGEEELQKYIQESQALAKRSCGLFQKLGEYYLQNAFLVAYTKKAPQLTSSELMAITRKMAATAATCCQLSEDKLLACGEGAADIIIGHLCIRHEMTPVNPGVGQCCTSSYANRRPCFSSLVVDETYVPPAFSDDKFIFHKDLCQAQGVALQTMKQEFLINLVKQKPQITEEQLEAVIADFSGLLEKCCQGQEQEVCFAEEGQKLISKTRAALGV
Assay: thermofluorimetric analysis (EvaGreen melting curves); 1.25-80 nM and 1-5 nM aptamer; HEPES buffer with Na+, K+, Mg2+, Ca2+; 20 mM HEPES-Na, 120 mM NaCl, 4 mM KCl, 2 mM MgCl2, 1 mM CaCl2, pH 7.35 (aptamer diluent); 30 min at room temperature, then melt 4-80 C with EvaGreen; AFP stock
Conditions: protein: recombinant; label: EvaGreen dye (non-covalent)

B1: AP273 (ssDNA)
DNA: GTGACGCTCCTAACGCTGACTCAGGTGCAGTTCTCGACTCGGTCTTGATGTGGGTCCTGTCCGTCCGAACCAATC
**Q.** Does B1 bind?
**A.** Result: binds
